Results: PMC4154663, “Bipartite Recognition of DNA by TCF/Pangolin Is Remarkably Flexible and Contributes to Transcriptional Responsiveness and Tissue Specificity of Wingless Signaling”

T1: TCF/Pangolin HMG + C-clamp fragment (UniProt P91943 273-400)
T1 sequence: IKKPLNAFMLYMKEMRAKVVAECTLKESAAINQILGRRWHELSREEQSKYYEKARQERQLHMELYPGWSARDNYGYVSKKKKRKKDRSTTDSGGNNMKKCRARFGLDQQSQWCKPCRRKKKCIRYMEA


Target: T1, TCF/Pangolin HMG + C-clamp fragment
Test: competition EMSA; labeled AK6 probe; 10 mM Tris-HCl pH 7.5, 50 mM KCl, 1 mM DTT, 50 mM MgCl2 (so in the source), 0.05% NP40, 3.5% glycerol, 50 ug/ml poly(dIdC); 6 pmol protein, 0-2.4 pmol competitor, 20
Settings: protein: recombinant, tags: His (pET52b(+), XmaI/SacI), blunt

Binder	IC50	IC50 (printed reverse strand is mismatched at its last 2 nt (atcgac vs atcgta))
RW0 competitor (dsDNA) DNA 1: TGGTACGATAAGATCAAAGGTGGCGGCGTCGTACAC DNA 2: GTGTACGACGCCGCCACCTTTGATCTTATCGTACCA	189 nM	
KK6 competitor (dsDNA) DNA 1: TACGATCCTTTGATCTTTGCAGTTGGCGGCGTCGTA DNA 2: TACGACGCCGCCAACTGCAAAGATCAAAGGATCGTA	99.7 nM	
FF0 competitor (dsDNA) DNA 1: TGGTACGATCCTTTGATCTTGCCGCCAGTCGTACAC DNA 2: GTGTACGACTGGCGGCAAGATCAAAGGATCGTACCA	9.4 nM	
AK6 competitor (dsDNA) DNA 1: TACGATAAGATCAAAGGTGCAGTGCCGCCAGTCGTA DNA 2: TACGACTGGCGGCACTGCACCTTTGATCTTATCGAC		5.1 nM
